In patent publication US20190309059A1 (SHANGHAI PHARMAEXPLORER, published 2019):

Assays:
[1] = biological target: his-labeled human IL-13 (immunogen A) (human) (UniProt P35225); assay: FACS blocking, biotin-IL-13 on IL-13Ra2 HEK293 cells; antibody at 1.33 nM
[2] = biological target: his-labeled human IL-13 (immunogen A) (human) (UniProt P35225); assay: FACS blocking, biotin-IL-13 on IL-13Ra2 HEK293 cells; antibody at 0.05 nM
[3] = biological target: his-labeled human IL-13 (immunogen A) (human) (UniProt P35225); assay: cell-based or functional assay
[4] = biological target: T1, mouse IL-13 (purchased from sino biological) (mouse, UniProt P20109 19-131); assay: ELISA, mouse IL-13; antibody at 0.000 nM
T1 chain: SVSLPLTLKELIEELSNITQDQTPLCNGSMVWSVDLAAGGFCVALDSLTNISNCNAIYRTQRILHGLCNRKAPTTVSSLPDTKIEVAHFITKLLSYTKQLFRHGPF

[5] = biological target: his-labeled human IL-13 (immunogen A) (human) (UniProt P35225); assay: FACS blocking, biotin-IL-13 on IL-13Ra2 HEK293 cells; antibody at 0.27 nM
[6] = biological target: his-labeled human IL-13 (immunogen A) (human) (UniProt P35225); assay: FACS blocking, biotin-IL-13 on IL-13Ra2 HEK293 cells; antibody at 6.67 nM
[7] = biological target: his-labeled human IL-13 (immunogen A) (human) (UniProt P35225); assay: ELISA, biotin-immunogen A; antibody at 0.53 nM
[8] = biological target: cynomolgus IL-13 (purchased from sino biological) (cynomolgus) (UniProt Q0PW92); assay: ELISA, cynomolgus IL-13; antibody at 2.67 nM
[9] = biological target: cynomolgus IL-13 (purchased from sino biological) (cynomolgus) (UniProt Q0PW92); assay: ELISA, cynomolgus IL-13; antibody at 0.004 nM
[10] = biological target: his-labeled human IL-13 (immunogen A) (human) (UniProt P35225); assay: FACS blocking assay: antibody titrated with biotin-labeled immunogen A (30 ng/mL); blocked partner IL-13Ra1/IL-4Ra on HEK293 clone 4C1; Alexa 488 streptavidin
[11] = biological target: cynomolgus IL-13 (purchased from sino biological) (cynomolgus) (UniProt Q0PW92); assay: ELISA, cynomolgus IL-13; antibody at 13.33 nM
[12] = biological target: his-labeled human IL-13 (immunogen A) (human) (UniProt P35225); assay: ELISA, biotin-immunogen A; antibody at 2.67 nM
[13] = biological target: T1, mouse IL-13 (purchased from sino …); assay: ELISA, mouse IL-13; antibody at 0.11 nM
[14] = biological target: cynomolgus IL-13 (purchased from sino biological) (cynomolgus) (UniProt Q0PW92); assay: ELISA, cynomolgus IL-13; antibody at 0.021 nM
[15] = biological target: his-labeled human IL-13 (immunogen A) (human) (UniProt P35225); assay: ELISA, biotin-immunogen A; antibody at 13.33 nM
[16] = biological target: his-labeled human IL-13 (immunogen A) (human) (UniProt P35225); assay: ELISA, biotin-immunogen A; antibody at 0.001 nM
[17] = biological target: T1, mouse IL-13 (purchased from sino …); assay: ELISA, mouse IL-13; antibody at 2.67 nM
[18] = biological target: his-labeled human IL-13 (immunogen A) (human) (UniProt P35225); assay: FACS blocking, biotin-IL-13 on IL-13Ra2 HEK293 cells; antibody at 0.01 nM
[19] = biological target: his-labeled human IL-13 (immunogen A) (human) (UniProt P35225); assay: ELISA, biotin-immunogen A; antibody at 0.11 nM
[20] = biological target: T1, mouse IL-13 (purchased from sino …); assay: ELISA, mouse IL-13; antibody at 0.004 nM
[21] = biological target: his-labeled human IL-13 (immunogen A) (human) (UniProt P35225); assay: FACS blocking assay: antibody titrated with biotin-labeled immunogen A (20 ng/mL); blocked partner IL-13Ra2 on HEK293 clone 1A1; Alexa 488 streptavidin
[22] = biological target: cynomolgus IL-13 (purchased from sino biological) (cynomolgus) (UniProt Q0PW92); assay: ELISA, cynomolgus IL-13; antibody at 0.53 nM
[23] = biological target: his-labeled human IL-13 (immunogen A) (human) (UniProt P35225); assay: FACS blocking, biotin-IL-13 on IL-13Ra2 HEK293 cells; antibody at 33.33 nM
[24] = biological target: T1, mouse IL-13 (purchased from sino …); assay: ELISA, mouse IL-13; antibody at 0.021 nM
[25] = biological target: his-labeled human IL-13 (immunogen A) (human) (UniProt P35225); assay: ELISA, biotin-immunogen A; antibody at 0.000 nM
[26] = biological target: his-labeled human IL-13 (immunogen A) (human) (UniProt P35225); assay: ELISA, biotin-immunogen A; antibody at 0.004 nM
[27] = biological target: his-labeled human IL-13 (immunogen A) (human) (UniProt P35225); assay: FACS blocking, biotin-IL-13 on IL-13Ra2 HEK293 cells; antibody at 166.67 nM
[28] = biological target: T1, mouse IL-13 (purchased from sino …); assay: ELISA, mouse IL-13; antibody at 13.33 nM
[29] = biological target: T1, mouse IL-13 (purchased from sino …); assay: ELISA, mouse IL-13; antibody at 0.001 nM
[30] = biological target: T1, mouse IL-13 (purchased from sino …); assay: ELISA, mouse IL-13; antibody at 0.53 nM
[31] = biological target: cynomolgus IL-13 (purchased from sino biological) (cynomolgus) (UniProt Q0PW92); assay: ELISA, cynomolgus IL-13; antibody at 66.67 nM
[32] = biological target: his-labeled human IL-13 (immunogen A) (human) (UniProt P35225); assay: ELISA, biotin-immunogen A; antibody at 0.021 nM
[33] = biological target: his-labeled human IL-13 (immunogen A) (human) (UniProt P35225); assay: FACS blocking, biotin-IL-13 on IL-13Ra2 HEK293 cells; antibody at 0.002 nM
[34] = biological target: his-labeled human IL-13 (immunogen A) (human) (UniProt P35225); assay: ELISA: biotin-labeled immunogen A on streptavidin plate, antibody titrated, HRP secondary antibody, OD450
[35] = biological target: cynomolgus IL-13 (purchased from sino biological) (cynomolgus) (UniProt Q0PW92); assay: ELISA, cynomolgus IL-13; antibody at 0.11 nM

Chain of cynomolgus IL-13 (purchased from sino biological) (cynomolgus) (Q0PW92 entry or part of it): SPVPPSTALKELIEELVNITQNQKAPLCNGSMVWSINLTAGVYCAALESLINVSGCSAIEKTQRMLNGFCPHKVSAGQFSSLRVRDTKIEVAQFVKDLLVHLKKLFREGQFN

B1: 35E2C3 (lead antibody, mouse hybridoma) (antibody, V domains shown)
VH: EVQLQESGPGLAKPSQTLSLTCSVTGYSITSDYWNWIRKFPGNKLEYMGYISYNGNTYYNPSLKSQISITRDTSKNQLYLQLKSATTEDTATYYCARLAKWTWYFDIWGTGTTVTVSS
VL: DIQMNQSPSSLSASLGDTITITCHASQNINVWLSWYQQKPGSLPKLLIYKASDLHTGVPSRFSGSGSGTGFTLTISSLQPEDIATYYCQQGQSYPYTFGGGTKLEIK
notes: Mouse monoclonal antibody purified from hybridoma supernatant on Protein G
mean fluorescence intensity [1]: 38.7 | mean fluorescence intensity [2]: 66.6 | TARC (pg/mL), A549 cells + IL-13 5 ng/mL + TNFα; antibody at 0.001 nM [3]: 1730 pg/mL | TARC (pg/mL), A549 cells + IL-13 5 ng/mL + TNFα; antibody at 0.004 nM [3]: 1670 pg/mL | TARC (pg/mL), A549 cells + IL-13 5 ng/mL + TNFα; antibody at 0.021 nM [3]: 1620 pg/mL | TARC (pg/mL), A549 cells + IL-13 5 ng/mL + TNFα; antibody at 0.11 nM [3]: 1550 pg/mL | TARC (pg/mL), A549 cells + IL-13 5 ng/mL + TNFα; antibody at 0.5 nM [3]: 1340 pg/mL | TARC (pg/mL), A549 cells + IL-13 5 ng/mL + TNFα; antibody at 2.7 nM [3]: 797 pg/mL | TARC (pg/mL), A549 cells + IL-13 5 ng/mL + TNFα; antibody at 13.3 nM [3]: 278 pg/mL | TARC (pg/mL), A549 cells + IL-13 5 ng/mL + TNFα; antibody at 66.7 nM [3]: 67 pg/mL | OD450 nm [4]: 0.07 | mean fluorescence intensity [5]: 53.2 | mean fluorescence intensity [6]: 35.1 | OD450 nm [7]: 0.91 | OD450 nm [8]: 0.52 | OD450 nm [9]: 0.07 | IC50 (read off the curve) [10]: 0.4 nM | OD450 nm [11]: 1.13 | OD450 nm [12]: 1.31 | OD450 nm [13]: 0.06 | OD450 nm [14]: 0.07 | OD450 nm [15]: 1.39 | OD450 nm [16]: 0.05 | OD450 nm [17]: 0.08 | mean fluorescence intensity [18]: 74.3 | OD450 nm [19]: 0.41 | OD450 nm [20]: 0.06 | IC50 (read off the curve) [21]: 0.3 nM | OD450 nm [22]: 0.21 | mean fluorescence intensity [23]: 32.4 | OD450 nm [24]: 0.06 | OD450 nm [25]: 0.05 | OD450 nm [26]: 0.07 | mean fluorescence intensity [27]: 28.9 | OD450 nm [28]: 0.09 | OD450 nm [29]: 0.07 | OD450 nm [30]: 0.06 | OD450 nm [31]: 1.56 | OD450 nm [32]: 0.15 | mean fluorescence intensity [33]: 76 | EC50 (read off the curve) [34]: 0.3 nM | OD450 nm [35]: 0.11
